Consider ten molecules from patent publication US20150093336A1 (VIB VZW, published 2015).

Changes are numbered by the printed parent chain.

For orientation: Kd means the constant that tells how readily two partners part at equilibrium. One may read the koff as the rate constant with which the complex falls apart. A word on the kon: it is the rate constant with which the complex forms.

To fix the notation:
T1: Recombinant human MMR (R&D systems) (human, UniProt P22897 19-1383)
T1 construct: Antigen of the PE-ELISA and the SPR; also called hMMR; recombinant hMMR
T1 sequence: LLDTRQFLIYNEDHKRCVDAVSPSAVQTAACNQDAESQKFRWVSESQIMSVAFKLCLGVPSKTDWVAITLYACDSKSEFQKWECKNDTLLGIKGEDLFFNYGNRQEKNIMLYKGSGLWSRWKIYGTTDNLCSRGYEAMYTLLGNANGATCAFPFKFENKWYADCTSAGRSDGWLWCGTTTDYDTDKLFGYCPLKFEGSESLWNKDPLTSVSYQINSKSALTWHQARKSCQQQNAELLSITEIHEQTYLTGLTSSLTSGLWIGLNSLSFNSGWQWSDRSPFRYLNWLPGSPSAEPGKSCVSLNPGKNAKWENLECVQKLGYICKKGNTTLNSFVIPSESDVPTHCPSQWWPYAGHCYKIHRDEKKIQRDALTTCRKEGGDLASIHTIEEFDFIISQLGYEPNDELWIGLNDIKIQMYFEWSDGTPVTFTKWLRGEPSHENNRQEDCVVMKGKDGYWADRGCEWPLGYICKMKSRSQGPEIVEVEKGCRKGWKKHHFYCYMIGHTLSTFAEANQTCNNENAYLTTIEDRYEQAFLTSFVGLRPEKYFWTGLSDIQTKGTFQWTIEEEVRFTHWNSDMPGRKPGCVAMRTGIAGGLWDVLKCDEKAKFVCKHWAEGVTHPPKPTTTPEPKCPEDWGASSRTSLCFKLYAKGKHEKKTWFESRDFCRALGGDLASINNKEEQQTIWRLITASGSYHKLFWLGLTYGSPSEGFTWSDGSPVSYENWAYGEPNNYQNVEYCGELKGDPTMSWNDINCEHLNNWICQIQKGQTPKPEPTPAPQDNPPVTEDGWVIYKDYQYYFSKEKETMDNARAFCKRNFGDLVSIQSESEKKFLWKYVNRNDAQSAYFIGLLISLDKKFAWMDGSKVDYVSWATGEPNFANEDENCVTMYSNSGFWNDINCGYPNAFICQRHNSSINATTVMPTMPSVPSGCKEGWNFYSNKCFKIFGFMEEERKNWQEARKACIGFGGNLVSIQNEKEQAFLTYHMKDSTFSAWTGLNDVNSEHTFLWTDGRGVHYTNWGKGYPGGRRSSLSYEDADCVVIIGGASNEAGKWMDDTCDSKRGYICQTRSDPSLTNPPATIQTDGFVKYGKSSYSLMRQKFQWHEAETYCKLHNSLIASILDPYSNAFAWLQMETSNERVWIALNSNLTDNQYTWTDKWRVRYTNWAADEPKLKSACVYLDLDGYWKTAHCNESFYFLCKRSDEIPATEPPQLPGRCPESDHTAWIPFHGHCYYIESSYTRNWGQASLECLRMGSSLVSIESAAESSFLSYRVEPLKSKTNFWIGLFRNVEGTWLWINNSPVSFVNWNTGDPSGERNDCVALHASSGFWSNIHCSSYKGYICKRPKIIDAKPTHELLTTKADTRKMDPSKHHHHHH

T2: Recombinant mouse MMR (R&D systems) (mouse, UniProt Q61830 20-1388)
T2 construct: Antigen of the PE-ELISA and the SPR; also called mMMR; recombinant mMMR
T2 sequence: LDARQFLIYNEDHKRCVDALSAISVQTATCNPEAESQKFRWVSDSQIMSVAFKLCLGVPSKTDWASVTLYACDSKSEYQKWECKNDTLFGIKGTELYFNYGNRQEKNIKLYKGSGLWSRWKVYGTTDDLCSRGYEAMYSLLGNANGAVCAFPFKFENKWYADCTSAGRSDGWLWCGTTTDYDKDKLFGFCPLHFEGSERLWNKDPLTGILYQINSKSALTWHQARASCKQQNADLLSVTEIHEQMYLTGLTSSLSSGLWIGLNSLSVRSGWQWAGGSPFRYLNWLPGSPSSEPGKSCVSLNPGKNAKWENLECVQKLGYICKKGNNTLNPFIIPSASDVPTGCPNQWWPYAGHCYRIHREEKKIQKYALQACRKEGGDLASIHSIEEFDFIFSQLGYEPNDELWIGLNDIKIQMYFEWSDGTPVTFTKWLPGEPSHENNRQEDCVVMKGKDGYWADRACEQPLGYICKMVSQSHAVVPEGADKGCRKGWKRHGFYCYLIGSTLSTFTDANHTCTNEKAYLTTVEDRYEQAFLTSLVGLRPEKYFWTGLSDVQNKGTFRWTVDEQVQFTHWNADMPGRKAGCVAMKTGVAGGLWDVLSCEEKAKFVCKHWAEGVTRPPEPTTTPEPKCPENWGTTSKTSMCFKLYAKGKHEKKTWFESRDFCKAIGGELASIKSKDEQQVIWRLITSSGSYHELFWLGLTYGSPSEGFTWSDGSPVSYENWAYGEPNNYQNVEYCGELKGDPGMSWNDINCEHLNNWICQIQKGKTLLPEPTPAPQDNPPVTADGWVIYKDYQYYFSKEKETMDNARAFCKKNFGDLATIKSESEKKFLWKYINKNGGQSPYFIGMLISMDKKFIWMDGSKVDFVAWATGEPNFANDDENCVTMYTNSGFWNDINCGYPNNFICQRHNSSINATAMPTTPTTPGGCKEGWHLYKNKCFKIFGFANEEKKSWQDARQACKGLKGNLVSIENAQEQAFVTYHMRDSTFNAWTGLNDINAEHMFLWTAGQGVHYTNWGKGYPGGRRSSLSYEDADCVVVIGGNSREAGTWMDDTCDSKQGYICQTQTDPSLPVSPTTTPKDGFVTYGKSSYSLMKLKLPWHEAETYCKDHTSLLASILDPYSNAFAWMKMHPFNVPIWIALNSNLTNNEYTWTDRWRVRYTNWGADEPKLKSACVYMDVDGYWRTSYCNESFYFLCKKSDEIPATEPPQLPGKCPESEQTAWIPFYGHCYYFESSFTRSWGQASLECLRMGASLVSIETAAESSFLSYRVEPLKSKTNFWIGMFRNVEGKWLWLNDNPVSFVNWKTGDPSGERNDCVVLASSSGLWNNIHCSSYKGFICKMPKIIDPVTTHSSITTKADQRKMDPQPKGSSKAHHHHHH

B1: NbhMMRm11.5 (VHH)
VHH: QVQLQESGGGLVQPGGSLMLSCAASGNIFTINRMGWYRQAPGKQRELVAAITSGGNTNYADSVKGRFTISRDNAKNTVYLQMNSLKPEDTAVYYCNAAIVTMTSPYSDYWGQGTQVTVSS
notes: Produced from pMECS with C-terminal HA and 6xHis tag
B2: NbhmMMRm3.49 (VHH)
VHH: QVQLQESGGGLVQPGGSLRLSCAASGFSLDYYAIGWFRQAPGKEREGISCISYKGGSTTYADSVKGRFTISKDNAKNTAYLQMNSLKPEDTGIYSCAAGFVCYNYDYWGQGTQVTVSS
notes: Produced from pMECS with C-terminal HA and 6xHis tag; also called NbhMMRm3.49
B3: NbhmMMRm19.52 (VHH)
VHH: QVQLQESGGGLVQAGGSLRLSCLASGDTFSNYVMAWFRQAPGKEREIVAAIRLSGARYVPDSVKGRFTISRDNAKNAMYLQMTSLKPEDTARYYCAAGHTWGQYAYWGQGTQVTVSS
notes: as for B1
B4: NbhMMRm2.15 (VHH)
VHH: QVQLQESGGGLVQPGESLRLSCKLSGFTLDYYDIGWFRQAPGKEREGVSCISSIGGSANYADSVKGRFTISRDNVKNTVYLQMNSLKPEDTAIYYCAAEAQTPYNDGDCTRASYDYWGQGIQVTVSS
notes: as for B1
B5: NbhmMMRm20.52 (VHH)
VHH: QVQLQESGGGLVQAGGSLRLSCAASGRIFSAYAMGWFRQAPGKEREFVAAISRSGDSTDYADSVKGRFTISRDSAKNMVYLQMNSLKPEDTALYHCAARTVSAPPSAAWGYGYWGQGTQVTVSS
notes: as for B1
B6: NbhMMRm1.33 (VHH)
VHH: QVQLQESGGGLVQPGGSLRLSCAASGFTLDNYTVAWFRQAPGKEREGVSCISSSGGSTNYADSVKGRFTISRDNSKKSVYLQMNSLKPEDTAIYTCAAERAPPYYSGYYFFDSTCVAASYDYWGQGTQVTVSS
notes: Produced from pMECS in E. coli WK6 with C-terminal HA and 6xHis tag; also called NbMMRm1.33
B7: NbhmMMRm14.4 (VHH)
VHH: QVQLQESGGGLVQAGDSLRLSCAASGRTFSINYMGWYRQAPGKQRELVAAITSGSGSTNYADSVKGRFTISRDNAKNTMYLQMNSLKPEDTAVYYCNADMDSSLSGGYVDVWGQGTQVTVSS
notes: as for B1
B8: NbhmMMRm14.93 (VHH)
VHH: B7 VHH with N77K
notes: as for B1
B9: NbhMMRm10.19 (VHH)
VHH: QVQLQESGGGLVQPGGSLKLSCAASGSIFSIKTMGWYRQAPGKQRELVAAITSGGSTNYADSVKGRFTISRDNAKNTVYLQMNSLKPEDTAVYYCNADGVVAWDQPYDNYWGQGTQVTVSS
notes: as for B1
B10: NbhmMMRm10.79 (VHH)
VHH: B9 VHH with I51V, T52S, T77A
notes: as for B1

In one assay the target is T1, Recombinant human MMR (R&D systems). The experiment in a line: SPR, BIAcore T100; human MMR on CM5 chip, sdAb as analyte. Here is the method:
(§1) Affinity analysis was performed using a BIAcore™ T100 (GE Healthcare) with HEPES-buffered saline running buffer (10 mM HEPES with 0.15 M NaCl, 3.4 mM EDTA and 0.005% surfactant P20 at pH 7.4). MRR was immobilized on a CM5 chip in acetate buffer 50 mM (pH 5.0), resulting in 2100 RU MMR coated on the chip. A second channel on the same chip was activated/deactivated in a similar way and served as a negative control. The MMR sdAbs were used as analytes in eleven different concentrations, ranging from 1 to 2000 nM, at a flow rate of […]. Glycine-HCl 50 mM (pH 2.0) was used for elution. The kinetic and equilibrium parameters (kd, ka and KD) values were calculated from the combined sensogram of all concentrations using BIAcore™ T100 evaluation software 2.02 (GE Healthcare).
(§2) The binding characteristics and affinity of selected Nbs towards the recombinant hMMR and recombinant mMMR antigen was examined in further detail using surface plasmon resonance. A combined sensogram was recorded for each Nb (example for NbhmMMRm3.49 in FIG. 5) and the kinetic and equilibrium parameters (kd, ka and KD) values were calculated (Table 4 and Table 5). Most but not all results on binding to mouse or human rMMR obtained via this SPR analysis are in agreement with the results obtained by PE-ELISA.
A general note: Surface plasmon resonance follows binding to a sensor surface in real time, without labels.
In the case of B1, the Kd is 55 nM, the dissociation rate constant (koff) was found to be 0.022 s⁻¹ and the kon came out at 400000 M⁻¹ s⁻¹.
On to B2, for which the Kd worked out at 1.8 nM, the koff amounted to 0.0008 s⁻¹ and the kon was 440000 M⁻¹ s⁻¹.
For B3, in that order: 1700 nM, 0.01 s⁻¹ and 6000 M⁻¹ s⁻¹.
In the same order, the values of B4 are 8.6 nM, 0.0013 s⁻¹ and 150000 M⁻¹ s⁻¹.
For B5, in that order: 260 nM, 0.13 s⁻¹ and 510000 M⁻¹ s⁻¹.
Regarding B6, the Kd was found to be 7.7 nM, the koff was 0.0015 s⁻¹ and the kon is 200000 M⁻¹ s⁻¹.
As to B7, the Kd amounted to 10 nM, the koff was determined as 0.0014 s⁻¹ and the kon came out at 140000 M⁻¹ s⁻¹.
For B8, in that order: 13 nM, 0.0012 s⁻¹ and 95000 M⁻¹ s⁻¹.
For B9, in that order: 50 nM, 0.031 s⁻¹ and 750000 M⁻¹ s⁻¹.
With B10, the Kd was 420 nM, the koff was determined as 0.0066 s⁻¹ and the kon turned out to be 16000 M⁻¹ s⁻¹.

A further assay deals with T2, Recombinant mouse MMR (R&D systems). The experiment in a line: SPR, BIAcore T100; mouse MMR on CM5 chip, sdAb as analyte. Here is the method: as §1, §2
For the molecule B1, the Kd is 120 nM, the koff is 0.019 s⁻¹ and the kon is 150000 M⁻¹ s⁻¹.
In the same order, the values of B2 are 12 nM, 0.0036 s⁻¹ and 290000 M⁻¹ s⁻¹.
In the same order, the values of B3 are 8500 nM, 0.032 s⁻¹ and 3700 M⁻¹ s⁻¹.
As to B4, the binding result is “no binding (tested: analyte 1 to 2000 nM)”.
As for B5, the Kd turned out to be 1.3 nM, the koff amounted to 0.002 s⁻¹ and the kon was 1.6e+06 M⁻¹ s⁻¹.
Take B6: the binding result is “no binding (tested: analyte 1 to 2000 nM)”.
Take B7: the Kd was 68 nM, the koff came to 0.0023 s⁻¹ and the kon worked out at 33000 M⁻¹ s⁻¹.
For B8, in that order: 74 nM, 0.0021 s⁻¹ and 29000 M⁻¹ s⁻¹.
In the same order, the values of B9 are 250 nM, 0.21 s⁻¹ and 840000 M⁻¹ s⁻¹.
In the same order, the values of B10 are 39 nM, 0.0042 s⁻¹ and 110000 M⁻¹ s⁻¹.
